Measurements reported in patent publication US6773917 (CURATORS OF THE UNIVERSITY OF MISSOURI, dated 2004).

Tests used:
[1] = biological target: T1, plastid pyruvate dehydrogenase heterotetramer (imported plastid PDC E1α and E1β subunits) (Arabidopsis thaliana, UniProt O24457 69-428; Q9C6Z3 74-406); test: in vitro import into chloroplasts and assembly
T1 construct: also called this heterotetramer
T1 sequence 1: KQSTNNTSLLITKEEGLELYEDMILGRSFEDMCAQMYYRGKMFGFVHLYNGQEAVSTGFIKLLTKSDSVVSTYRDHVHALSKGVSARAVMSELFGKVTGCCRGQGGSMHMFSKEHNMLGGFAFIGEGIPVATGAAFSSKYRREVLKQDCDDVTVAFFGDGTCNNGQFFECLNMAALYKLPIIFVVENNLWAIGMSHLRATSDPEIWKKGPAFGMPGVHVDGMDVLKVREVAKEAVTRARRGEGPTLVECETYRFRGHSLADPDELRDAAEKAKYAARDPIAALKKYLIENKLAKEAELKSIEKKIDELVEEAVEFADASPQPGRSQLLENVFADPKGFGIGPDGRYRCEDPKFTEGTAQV
T1 sequence 2: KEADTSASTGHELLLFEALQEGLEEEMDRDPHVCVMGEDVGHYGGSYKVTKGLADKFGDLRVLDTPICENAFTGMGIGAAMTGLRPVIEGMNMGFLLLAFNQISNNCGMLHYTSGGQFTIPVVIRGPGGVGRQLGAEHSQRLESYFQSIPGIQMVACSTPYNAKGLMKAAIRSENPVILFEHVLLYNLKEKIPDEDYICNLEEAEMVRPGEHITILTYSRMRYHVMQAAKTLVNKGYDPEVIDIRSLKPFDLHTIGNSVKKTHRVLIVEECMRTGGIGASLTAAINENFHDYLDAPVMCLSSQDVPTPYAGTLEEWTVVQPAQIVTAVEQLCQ

[2] = biological target: T2, in vitro imported Arabidopsis thaliana plastid PDC E1α subunit (Arabidopsis thaliana, UniProt O24457 69-428); test: in vitro import into chloroplasts and assembly
T2 construct: Translated in vitro and imported into chloroplasts
T2 sequence: T1 sequence 1

B1: in vitro imported Arabidopsis thaliana plastid PDC E2 subunit (enzyme)
chain: IREIFMPALSSTMTEGKIVSWIKTEGEKLAKGESVVVVESDKADMDVETFYDGYLAAIVVGEGETAPVGAAIGLLAETEAEIEEAKSKAASKSSSSVAEAVVPSPPPVTSSPAPAIAQPAPVTAVSDGPRKTVATPYAKKLAKQHKVDIESVAGTGPFGRITASDVETAAGIAPSKSSIAPPPPPPPPVTAKATTTNLPPLLPDSSIVPFTAMQSAVSKNMIESLSVPTFRVGYPVNTDALDALYEKVKPKGVTMTALLAKAAGMALAQHPVVNASCKDGKSFSYNSSINIAVAVAINGGLITPVLQDADKLDLYLLSQKWKELVGKARSKQLQPHEYNSGTFTLSNLGMFGVDRFDAILPPGQGAIMAVGASKPTVVADKDGFFSVKNTMLVNVTADHRIVYGADLAAFLQTFAKIIENPDSLTL
notes: Translated in vitro and imported into chloroplasts; also called imported PDC E2 subunits
binding result [1]: binds

B2: in vitro imported Arabidopsis thaliana plastid PDC E1β subunit (enzyme)
chain: T1 sequence 2
notes: Translated in vitro and imported into chloroplasts
binding result [2]: binds
